The target of assay [1] is tagged human CD19 recombinant protein (human) (UniProt P15391). Nature of the assay: flow cytometry; transduced oNK cells stained with tagged CD19 recombinant protein and fluorescent anti-Myc antibody, after sorting.
For assay [2] the target is unchanged. Nature of the assay: flow cytometry; transduced oNK cells stained with tagged CD19 recombinant protein and fluorescent anti-Myc antibody, before enrichment.
In assay [3] the target is CD19 on Raji-Luc cells (CD19+ B cell lymphoma cell line) (human) (UniProt P15391). Nature of the assay: cell-based or functional assay.

Data on 1 substance can be found in patent US20230036481A1.

As to “anti-CD19 chimeric antigen receptor (CAR) expressed on oNK cells (CAR19-oNK)”, the double positive of fluorescent signal of expressed Myc tag and bound human CD19 recombinant protein (% of cells) in assay [1] stood at 82.3%. The double positive of fluorescent signal of expressed Myc tag and bound human CD19 recombinant protein (% of cells) in assay [2] came out at 9.06%. In assay [3], this substance had a percentage of cytotoxicity (luciferase luminescence), E:T 0.2:1, 1 hour of 13.9%; a percentage of cytotoxicity (luciferase luminescence), E:T 0.5:1, 1 hour of 45.9%; a percentage of cytotoxicity (luciferase luminescence), E:T 1:1, 1 hour of 64.1%; a percentage of cytotoxicity (luciferase luminescence), E:T 2:1, 1 hour of 80%. This substance returned a percentage of cytotoxicity (luciferase luminescence), E:T 5:1, 1 hour in assay [3] of 91.4%.
